Source: FireProtDB (doi:10.1021/acs.biochem.7b01284)

Details: Methanothermobacter thermautotrophicus (strain ATCC 29096 / DSM 1053 / JCM 10044 / NBRC 100330 / Delta H); pH 7.5; Thermal; DSC; potassium phosphate buffer; reversible: no; whole UniProt chain shown

B1: Geranylgeranylglyceryl phosphate synthase wild type, O26652 (protein)
chain: MKVEDYFHDILRERKIHLTLIDPEEQTPEEAVEIARAAIRGGTDGIMLGGSTTDSSELDNTARALRENIDVPIILFPGNTTGVSRYADAIFFMSLLNSTNPYWIIGAQALGAATVKKMGIEALPMGYLVVEPGGTVGWVGDTKPVPRNKPDIAAAYAMAAEFLGMRLFYLEAGSGAPEHVPEEMIALVKRCTDQILIVGGGIRSGEDAARVAGAGADVVVTGTVVENSDNVEDKIREIVEGMGSV
unfolding enthalpy (calorimetric): 389 kcal/mol
